B1: LINE1-full (parent)
chain: UACGUAGGUGGUUUUCCCCUGAUAGUGCUAAGGGGGCCUGGAAGUUUGGACUGGGCAGAGCUCAACACAGCGUGGCAAAGUGGCUGUGGCUAGACUGCCUCUCUGGAUUCCUCGUCACUCAGCAGGGCAUCUCUGAGAGAAAUGCC

Variants of: B1
Assay: self-cleavage, relative activity (ratio to wild type); higher = more cleavage; in vitro, sequencing; the parent is a self-cleaving ribozyme

Variant | self-cleavage
C3U U23A | 0.71
U52C | 1.24
A42G A121C | 0.84
A42C A107U | 1.04
A30G A136G | 1.23
G25U A140G | 0.7
A6U U13C | 1.25
U45C A117G | 0
U52A U81C | 1.51
U5C C84U | 0.18
U73C A121U | 1.89
A57G U102A | 0.82
A43G U87C | 0.32
G49U U132C | 1.06
G4C U91A | 0.75
U9C G27A | 1.16
U73A A129U | 1.7
G35U A50U | 0.57
A77G A140U | 2.21
U9A U52C | 0.74
C68U A140G | 0.16
U45A U130C | 1.86
U13A U91C | 0.89
U13G C113U | 1.11

Variant | self-cleavage
U20C G25A | 0.84
A2U U52C | 0.67
U39A G49A | 1.06
A2G G93A | 0.1
A64U G125A | 0.34
C128U U130C | 1.35
A107G C145U | 1.45
U12C G74A | 1
U15A U29C | 2.9
A2G | 0.85
G86A A124C | 0.03
U109A A140U | 1.22
U15C U143A | 1.55
A24G U62A | 0.07
A31C | 1.43
A107G A138G | 1.42
A107C A136G | 1.73
U91C U130C | 0.77
A6U U26A | 0.87
A124G A138G | 1.36
G122U G125C | 2.14
U20A G135U | 0.43
C101A C113A | 1.41
U13A U14C | 0.46

Variant | self-cleavage
A42G U85G | 0.26
A22G C37G | 0.79
U15C U52C | 1.14
A24U A31U | 1.09
U52C U62A | 0.08
G41A A138G | 1.25
U52C A121G | 1.41
C118U U143A | 1.31
A64U U96A | 0.06
A140U U143A | 1.41
U23C C66U | 0.05
A6C A129U | 0.77
U104C U132C | 1.63
A65G A69C | 0
U96A A138U | 0.1
U12C A78C | 2.54
U12C A78G | 0.95
A57U U73C | 0.1
A59G A64G | 0.06
C17U U29C | 0.81
A64G C84A | 0.05
C51U U115C | 1.98
A67U U102A | 0.11
G4A U87A | 0.12

Variant | self-cleavage
U14C U91C | 0.79
C28U A64U | 0.33
G34A U112C | 0.94
U104A A117G | 1.67
C63A G97A | 0.01
C111U U130C | 1.75
A42U U100A | 0.62
U73C A129G | 1.98
U73C A129C | 1.36
A107G U143A | 1.51
A30U G82A | 1.57
U108A A136G | 0.53
A79C U100C | 2.76
A43G A124U | 1.38
U45C G93U | 0.03
U102A U112C | 0.96
U20A U108C | 1.95
A42U A43G | 1.51
A22G C98U | 0.64
A94U A141G | 0.37
U52A G106C | 1.84
G7U U47A | 1.2
G126A U143C | 0.77
G40U A117G | 0.97

Variant | self-cleavage
A22G U47A | 1.15
U15C A124C | 0.86
U15C A124U | 1.32
U29G U96C | 0.67
A50G U119A | 0.96
U9C A136U | 1.3
U45C U143A | 1.39
U119G A141G | 1.57
U39C G144A | 0.85
A31G G35C | 1.15
C28A A117G | 0.74
A50C U115C | 1.84
A42G U81C | 1.55
A57C U132G | 0
U47A A117C | 1.32
U143C | 1.18
A43U U96C | 0.1
G4U A129G | 1.07
A138U U143A | 1.52
A22U G83A | 0.82
C19U U87A | 0.09
A2U A79G | 1.45
C3U U12C | 0.57
U23A U45C | 0.71

Variant | self-cleavage
G70A U91A | 0.1
C116U U132C | 0.91
U29C U52C | 1.84
U104C G122A | 1.54
U9G A31C | 1.72
A59G U62A | 0.06
U13A U62C | 0.03
U1C A59U | 0.56
A65G A117G | 0.08
A43U C90A | 0.07
G89A U96C | 0.07
U46C C51A | 1.52
A57G U134G | 0.78
G55U U134C | 0.29
G27A U108C | 1.15
U91C U115G | 0.69
U39C A117C | 1.84
U112C | 1.36
A94U A107U | 0.32
U26C U104C | 0.84
G4A U13C | 1.12
G35C A94G | 0.14
C19U U134A | 0.81
U12G A92U | 0.62

Variant | self-cleavage
U26A A142G | 1.2
U14C U81A | 1.34
A6G U85G | 0
G25U A79G | 0.77
G127U A141G | 1.45
C113U A136U | 1.75
U46A A94G | 0.16
G44A A94G | 0.27
G97A U109A | 0.07
A42G A92U | 0.72
A22G A136G | 1.17
U20C A92G | 0.08
U46C G139U | 1.7
U85G A136G | 0
A67U U143C | 0.2
U15G A78G | 0
U12A U85A | 0.15
A24G A121U | 2.93
G34U C90U | 0
U1C G105A | 0.12
C3U A50G | 0.33
G11U A79U | 1.75
U39A C116A | 1.38
A64G U104A | 0.32

Variant | self-cleavage
A65G C116U | 0.05
A24U A77U | 0.93
U85A U134A | 0.06
U15C U29C | 1.28
A79G G97A | 0.08
G48A G125A | 1.38
C71A | 0.2
U52A C116U | 1.18
U109C U134A | 0.22
A6G U15A | 0.58
U15C C28U | 2.35
G80A U104A | 1.86
U23C U109A | 1.49
A64G U91C | 0.07
G36U U96C | 0.07
U39A A141U | 1.45
U134A A141G | 1.12
C56U A141G | 0.14
U46A U132C | 1.32
C19U U119C | 1.38
G44A A117G | 1.21
A121U A142G | 1.4
A92G U143C | 0.36
U29C A31G | 1.14

Variant | self-cleavage
U15A A43U | 0.87
U100G | 1.24
G35A C131U | 1.67
G74A U115C | 1.46
G11A U119A | 0.93
A24G U130C | 1.47
G105A G114C | 1.42
U20G G27A | 0.92
U96A A124G | 0.06
U14C G25C | 0.5
U45A C63A | 0.05
A65G U134A | 0.04
U96A A140G | 0.06
A2G C71U | 0.7
A43G A92U | 0.92
A6U G72A | 1.2
U91C C123U | 0.8
A64G A117U | 0.26
U45C U100A | 0.58
U29C C111A | 1.24
G10A A77G | 1.31
U12C U87C | 0.21
U108C C113A | 1.45
A67C U104C | 0.04

Variant | self-cleavage
C19U A117G | 1.49
U20G G74A | 1.29
U81A A117U | 1.94
A65G C68A | 0.04
G41U A64G | 0.16
U73G A107U | 1.59
G34A C66U | 0.05
G55U A121G | 0.37
A64U U81G | 0.4
U12C G105A | 1.54
U47A A138U | 1.59
U62C A67U | 0.05
C19U A57G | 0.88
U14C G97A | 0.09
U9C G97A | 0.33
A136G G144A | 0.88
A67U C103A | 0.15
C110A | 1.35
A124G U132C | 0.82
A43G G106A | 1.36
A50U U62C | 0.04
G49A G122C | 1.28
U81A A124C | 2.45
U104C A129C | 2.1

Variant | self-cleavage
U14C U119A | 1.25
C3U U39C | 0.79
A24U | 1.25
A24U A92G | 0.08
G32U U96C | 0.08
U1A U26G | 1.19
G36C U132C | 1.27
A22G A107U | 0
U62C A77C | 0.05
A30G A92G | 0
G34A A140U | 1.29
A31G U134C | 1.53
A129G A136G | 1.7
A43C U81A | 1.77
C56U A138U | 0.1
U47G C146A | 1.22
U62C A78U | 0.04
G33A U46C | 1.12
A64G U132C | 0.39
G88A U112A | 0.08
A59G U115A | 0.11
A79U A121G | 1.58
U130G A140G | 1.1
A57G U85C | 0.16

Variant | self-cleavage
U20C G40A | 1.1
C71U A117G | 0.64
U14A U29A | 1.51
U14A U29C | 1.28
G40U U130C | 1.32
U46C A121U | 1.25
U12C U47G | 1.21
U13A A79U | 0.96
U15C U108A | 2.1
C84G A129G | 0.2
U14A G70A | 0.19
C123A A140G | 1.42
U1C A92G | 0.14
C90U U134C | 0.04
A107G C113A | 1.94
A94U | 0.29
C110U A124G | 0.82
C63U C123U | 0.38
U20A U46A | 0.96
U23C U96A | 0.12
U9G A64U | 0.53
A57C | 0.08
U9A A141G | 1.36
A30C A141G | 1.38

Variant | self-cleavage
A31U U109C | 1.17
U9G G93C | 0.11
A50U U132C | 1.05
U20C U45A | 1.2
U91C A117G | 0.78
U46C U112A | 1.26
A31G A78G | 0.96
A31G U85A | 0.11
A24G U73A | 1.2
U26A G105U | 0.57
U85C U102A | 0.18
U73A C110A | 0.94
G126C | 1.19
G89A A136G | 0.04
U13G G58A | 0.17
A2G U119C | 1.32
U87C C131U | 0.15
U73A G86A | 0.04
C19U U26A | 0.95
U23C A65G | 0.1
U39C U91C | 0.33
C37U A67G | 0.22
U13C U134A | 1.03
U39A G53A | 1.33

Variant | self-cleavage
A77U A136C | 1.67
G93A A138G | 0.06
C18U A24G | 1.01
A31C C71A | 0.19
C131U | 1.41
G135U | 1.22
U13G U47C | 1.17
U14C U52A | 0.85
A50U U104C | 1.03
C37G A43G | 1.36
A43G A107G | 1.5
U5C A69G | 0.78
C18U U73C | 1.53
U85C A124U | 0.21
A22G U100G | 1.75
A24U U119A | 1.09
U29C A59U | 1.13
U13G U115G | 1.43
G88A U102A | 0.04
C90G U132C | 0.05
U100C U132C | 1.67
U130C U134C | 1.51

Reference: the RNAGym collection of RNA variant scans (doi:10.7554/elife.90254)
